This note sets out measurements from the nanobody polyreactivity screen of Harvey et al. (2022).

This series is described as follows: yeast display, Sf9 membrane polyspecificity reagent, FACS + sequencing; frameworks hold sequencing errors. In outline: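 A nanobody's polyreactivity label depends on the gate it was sorted from. Yeast display cells were stained with 10% biotinylated, detergent-solubilized Sf9 membrane reagent for 1 hour at 4 °C, enriched on streptavidin microbeads and sorted by FACS. The low and high (top ~1%) gates were set on anti-HA fluorescence for expression and streptavidin fluorescence for reagent binding.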
In the case of “QVQLVESGGGLVQAGGSLRLSCAPSGSIVNRYALGWYRQAPGKEREFVAAITRRGGYTYYADSVKGRFTISRDNAKNSVYLPLNSLKPEDTAVYYCAAPFYYPAGLLYYENNYWRQGTQVTVSS”, the “polyreactivity (PSR sort gate)” value is reported as “high polyreactivity”.
Regarding “QVQLVESGGGLVQAGGSLRLSCAPSGSTFFSKTMGWYRQAPWKERELVAAINDSGTSTYYADSVKRRFTISRDNSKKTVYLQMNSLKPEDTAVYYCAAYPSGWYDYWGQGTQVTVSS”, the “polyreactivity (PSR sort gate)” value is recorded as “low polyreactivity”.
For “QVQLVESGGGLVQAGGSLRLSCAPSGSTFGYNDMGWYRQAPGKERELVAAIDTGVSTNYADSVKGRFTISRDNAMNTVYLQMNSLKPVDTAVYYLAKSGSAYWHSGWSVGFDYWGQGTQVTVSS”, the “polyreactivity (PSR sort gate)” value is on record as “low polyreactivity”.
Then “QVQLVESGGGLVQAGGSLRLSCAPSGSTFIPNPMGWYRQAPGKERELVAAISRRGGSTNYADSVKGRFTISRDNAKNTVYLQMNSLKPEDTALYYCAAVSPRRYRYDYWGQGPQVTVSS”, with “low polyreactivity”; and “QVQLVESGGGLVQAGGSLRLSCAPSGSTFRPYGMGWYRQAPCKETELVAAINSGDSTYYADSVKGRFTISSDNAKNTVYLQMNSLKPEDTAVYYCAAGYYIRGRYGYWGQATQVTVSS”, with “high polyreactivity”; and “QVQLVESGGGLVQAGGSLRLSCAPSGSTFRRNTMGWYRQAPGKARELVAGISSSGGSTYYADSVKGRFTISRDNAKNTVYLQMNSLKPEDTAVYYCAARFYVSYVGYNYWGQGSQVTVSS”, with “high polyreactivity”.
The value for “QVQLVESGGGLVQAGGSLRLSCAPSGSTFRVYGMGWYRQAPGKETELVAVIRWRGGRTSYADSVKGRFTISRDNAKNTVYLQMNSLKPEDTAVYYCAAAYWNDWSQYDYWGQGTQVTVSS” was “high polyreactivity”; that for “QVQLVESGGGLVQAGGSLRLSCAPSGSTFYPNAKGWYRQAPRKERELVAAISRSGGSTYYADSVKGRFTISRDNAKNTVYLQMNSLKPEDTAVYYCAADGRSPARYDYWGQGTQVTVSS” was “low polyreactivity”.
With “QVQLVESGGGLVQAGGSLRLSCAPSGSTFYVNAMGWYRQAPGKEREFVAAITWNSGSTYYADSVKGRFTISRDNAKNTVYLQMNSLKPEDTAVYYCAADGYHYVTYLVSYGYWGQGTQVTVSS”, the “polyreactivity (PSR sort gate)” value is recorded as “low polyreactivity”.
Consider “QVQLVESGGGLVQAGGSLRLSCAPSGSTFYYYAMGWYRQAPGKERELVAAITWSGGSTRYADSVKGRFTISRDNAKNTVYLQMKSLKPEDTAVYYCAAYYRKTGFEYWGQGSQVTVSS”, for which the “polyreactivity (PSR sort gate)” value is given as “high polyreactivity”.
Then “QVQLVESGGGLVQAGGSLRLSCAPSGSTLYFYAMGWYRQAPGKERELDADITWSGGSTYYADSVKGRFTISRDNAKNTVYLQMNSLKPEDTAVYYCNADDWSTYWYGYPGYVYWGQGTQVTVSS”, with “high polyreactivity”; and “QVQLVESGGGLVQAGGSLRLSCAPSGSTYLSYAMGWYRQAPGKERELVAAITYSGGRTYYAESVKGRFTISRDNAKITVYLQMNSLKQEDTAVYYCAATGVFRDEYWGQGTQVTVSS”, with “low polyreactivity”; and “QVQLVESGGGLVQAGGSLRLSCAPSGYIFEIYAMGWYSQEPGKERELVAAISTRGGRTYYADSVKGRFTISRDKAKNTVYLQMNSLKPEDTAVYYCAAGFPYKFTYVGGYNHWGQGTQVTVSS”, with “low polyreactivity”.
Then “QVQLVESGGGLVQAGGSLRLSCAPSGYIIRQYAMGWYRQAPGKEREFVAAISQTGGSTYYADSVKGRFTISRDNAKNTVYLQMNSLKPEDTAVYYCAARYRGQRYRKLDYWGQGTQVTVSS”, with “high polyreactivity”; and “QVQLVESGGGLVQAGGSLRLSCAPSGYTFGKYAMGWYRHAPVKERELVATIRSGGSTNYADSVKGRFTISRDNAKNTVYLQMNSLKPEDTAVYYCNKRYRYQYGYDFWGQGTQVTVSS”, with “high polyreactivity”.
“QVQLVESGGGLVQAGGSLRLSCAPSVRIFGTNAMGWYRQAPGTERELVADITSGGSTNYADSVKGRFTISRDNAKNTVYLQMISLKPEDTAVYYCAADVIGDLRWYRDEYWGQGTQVTVSS”: the “polyreactivity (PSR sort gate)” value is on record as “low polyreactivity”.
The value for “QVQLVESGGGLVQAGGSLRLSCASSGFIFPLYAMGWYRKAPGKERELVAAITWRGDTTSYADSVKGRFTISRDNAKNTVYLLMIRLKPEDNAVYYCNARGYFGWYAMDYWGQGTQVTVSS” was “high polyreactivity”.
The value for “QVQLVESGGGLVQAGGSLRLSCASSGFTFDINAMGWYRQAPGKERELVAVITWNDGSTYYADSVKGRFTISRDNAKNTVYLQMNSLKPEDTAVYYCAAEYADSWSAFDWNYYYWGQGTQVTVSS” was “high polyreactivity”; that for “QVQLVESGGGLVQAGGSLRLSCASSGFTFFRNAMGWYRQAPGKERELVAAISGSGGRTYYADSVKGRFTISRDNAKNTVYLQMNSLKLEDTAVYYCAAVPVDPGYDYWGQVTQVTVSS” was “high polyreactivity”; that for “QVQLVESGGGLVQAGGSLRLSCASSGFTFHSYAMGWYRQAPGKERELVAAISTGGTRTYYADSVKGRFTISRDNAKNTVYLQMNSLKTEDTAVYYCAADLYRGVRIYSKYDSWGQGTQVTVSS” was “high polyreactivity”.
The value for “QVQLVESGGGLVQAGGSLRLSCASSGFTFPYYAMGGYRQAPGKERELVAAISWGGGSTYYADSVKGRFTISRDNAKNTVYLQMNSLKPEDTAVYYCNAYEYLSAGYDYWGQGTQVTVSS” was “low polyreactivity”.
For “QVQLVESGGGLVQAGGSLRLSCASSGFTFSRNVMGWYRQAPGKETELVADITLSGASTYYADSVKGRFTISRDNAKNPDYLQMNSLKPEDTAVYYCAADPYHWRWGWRHVYWGQGTQVTVSS”, the “polyreactivity (PSR sort gate)” value is recorded as “low polyreactivity”.
For the sequence “QVQLVESGGGLVQAGGSLRLSCASSGFTFTLYARGWYRQAPGKEWELVAAINRSGGRTYYADSVKGRFTISRDNAKNTVYLQMNSLKPEDTAVYYCNKYPWPNYYDGEYDYWGQGTQVTVSS”, the “polyreactivity (PSR sort gate)” value was “high polyreactivity”.
The value for “QVQLVESGGGLVQAGGSLRLSCASSGFTFYYNAMGWYRQAPGQERELVASITRSGGRTYYSDSVKGRFTISRDNAKNTVYLQMNSLKPEDTAVYYCARRYPGGYYWGQGTHVTVSS” was “high polyreactivity”.
Then “QVQLVESGGGLVQAGGSLRLSCASSGGIFYRNAMGWYRQAPGKERELVAVITSSGGSTYYADSVKGRFTISRDNAKNTVYLQMNSLKPVDTAVYYCAAESVAAYYWGQGTQVTVSS”, with “high polyreactivity”; and “QVQLVESGGGLVQAGGSLRLSCASSGIILYYYAMGWYRQAPGKERELVAAIDSGDSTDYADSVKGRFTISRDNAKNTVYLQMNSLKPEDTAVYYCAADSPVDEYYHWGQGTQVTVSS”, with “low polyreactivity”; and “QVQLVESGGGLVQAGGSLRLSCASSGITFRYYAMGWYRQAPGKERELVAAISDGGSTNYADSVKGRFTISRDNAKNTVYLQMNSLKPEDTAVYYCAADYRYLFDYWGQGTQVTVSS”, with “high polyreactivity”.
With “QVQLVESGGGLVQAGGSLRLSCASSGITLAGNAMGWYRQAPGKERELVAAISASGGRTSYADSVKGRFSISRDNAKNTVYLQKNSLKPEDTAVYYCNTRRYPTRPSYDYWGQGTQVTVSS”, the “polyreactivity (PSR sort gate)” value is “high polyreactivity”.
Regarding “QVQLVESGGGLVQAGGSLRLSCASSGLTFYKNAMGWYRQAPGKERELVAVISSSGGSTYYADSVKGRFTISRDNAKNTVYLQMNSLKPEDTAVYYGGRDLYTEYRWGRLTYDYWGHGTQVTVSS”, the “polyreactivity (PSR sort gate)” value is recorded as “low polyreactivity”.
Then “QVQLVESGGGLVQAGGSLRLSCASSGNTFERYAMGWYRQAPGKERELVAAITSSGGSTYYADSVKGRFTISRDNAKNTVYLQMNSLKPEDTAVYYCAASWRPRFYWGQGTQVTVSS”, with “high polyreactivity”; and “QVQLVESGGGLVQAGGSLRLSCASSGRIFSDYAMGWYRQAPGKEMEFVAAISSSGGRTYYADSVKGRFTISRDNAKNTFYLQMNSLKQEDTAVYYCNRYYGYYNTGRYGYWGQGTQVTVSS”, with “high polyreactivity”.
The value for “QVQLVESGGGLVQAGGSLRLSCASSGRIFSVYTMGWYRQAPGKERELVAAISSGASTNYADSVKGRFTISRDNAMNTVYLQMKSLKPEDTAVYYCAAVSPRRYRYDYWGQGTQVTVSS” was “low polyreactivity”; that for “QVQLVESGGGLVQAGGSLRLSCASSGRILYLNAMGWYRQAPGKERELVAAITLRAGSTRYADSVKGRFTISRDNAKNTVYLQMNSLKPEDTAVYYCAVAYYRNRMDYWVQGTQVTVSS” was “high polyreactivity”; that for “QVQLVESGGGLVQAGGSLRLSCASSGRTFARNVMGWYRQAPGKERELVAAIRGSGGSTYYADSLKGRFTISRDNGKNTVYLQMNSLKTEDTAVYYCAADSSYTKRHSPTKLHFDYWGQGTQVTVSS” was “high polyreactivity”.
With “QVQLVESGGGLVQAGGSLRLSCASSGRTFAYNAMGRYRQAPGKERELVAAITSSGGSTYYADSVKGRFTISRDNAKNTVYLQMNSLKPEDTAVYYCASYVRPDYYAIHVDYWGQGTQVTVSS”, the “polyreactivity (PSR sort gate)” value was “low polyreactivity”.
As to “QVQLVESGGGLVQAGGSLRLSCASSGRTFGFNVMGWYRQATGKERELVAAISWSGGSTYYADSVKGRFTISRDNAKNTVYLQMNILKPEDTAVYYCNAQYSQVNGYDYWGQGTQVTVSS”, the “polyreactivity (PSR sort gate)” value is “low polyreactivity”.
The value for “QVQLVESGGGLVQAGGSLRLSCASSGRTFRKYAMGWYRQAPGKERELVAGIDTSGGSTFYADSVKGRFTISRDNAKNTVYLQMNSLKPEDTAVYYCNADRHRINRPVILYYWGQGTLVTVSS” was “low polyreactivity”; that for “QVQLVESGGGLVQAGGSLRLSCASSGRTFRYNAMGWYIQAPGKESELVAAISRSGGRTYYADSVKGRFTISRDNAKNTVYLQMNSLKPEDTAVYYCAAYYYTAGDSSSRYDYWGQGTQVTVSS” was “high polyreactivity”; that for “QVQLVESGGGLVQAGGSLRLSCASSGRTFTRYAMGWYRQAPGKERELVAAITGGGTTNYADSVKGRFTISRDNAKNTVYLQINSLKPEDTAVYYCAADEQDVFAPGLYFWGQGTQVTVSS” was “low polyreactivity”.
The value for “QVQLVESGGGLVQAGGSLRLSCASSGRTFVWNAMGWYRQAPGKERELVAAIDWSGGSTYYADSVKGRFTISRDNAKNTVYLQMNSLKPEDTAVYYCAKEYWYRALWYNYWGQGTQVTVSS” was “high polyreactivity”.
Then “QVQLVESGGGLVQAGGSLRLSCASSGRTFWYYAMGWYRQPPGKERELVAAITSGGSTNYADSVKGRFTISRDNAKNTVYLQMNSLKPEDTAVYYCATDNPVFEYDYWGQGTQVTVSS”, with “low polyreactivity”.
